Test system: Escherichia coli TOP10
Assay: shrunken log2 fold change of peptide-encoding DNA abundance (4.5 h post-induction vs induction); higher = less antimicrobial activity (less host growth inhibition)
Settings: time post-induction: 4.5 h; library: site-saturation at positions 5, 18, 19, 20
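Also: peptides expressed intracellularly from a pBAD plasmid library in pooled LB shake-flask culture, induced with 0.3% L-arabinose, DNA abundance read by NGS, three biological replicates, DESeq2 with apeglm shrinkage.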

RRIRHRPPRLPRPRPRPSQWPRP
shrunken log2 fold change: -0.451

RRIRHRPPRLPRPRPRPSQYPRP
shrunken log2 fold change: -0.372

RRIRHRPPRLPRPRPRPSRNPRP
shrunken log2 fold change: -0.134

RRIRHRPPRLPRPRPRPSRQPRP
shrunken log2 fold change: 0.212

RRIRHRPPRLPRPRPRPSSHPRP
shrunken log2 fold change: -1.3

RRIRHRPPRLPRPRPRPSSYPRP
shrunken log2 fold change: -0.649

RRIRHRPPRLPRPRPRPSTPPRP
shrunken log2 fold change: -0.225

RRIRHRPPRLPRPRPRPSVIPRP
shrunken log2 fold change: -0.369

RRIRHRPPRLPRPRPRPSWEPRP
shrunken log2 fold change: -0.0671

RRIRHRPPRLPRPRPRPSWLPRP
shrunken log2 fold change: -0.0847

RRIRHRPPRLPRPRPRPSYMPRP
shrunken log2 fold change: -0.00144

RRIRHRPPRLPRPRPRPTAMPRP
shrunken log2 fold change: 0.148

RRIRHRPPRLPRPRPRPTCAPRP
shrunken log2 fold change: 0.242

RRIRHRPPRLPRPRPRPTETPRP
shrunken log2 fold change: 0.146

RRIRHRPPRLPRPRPRPTFEPRP
shrunken log2 fold change: 0.0452

RRIRHRPPRLPRPRPRPTFPPRP
shrunken log2 fold change: 0.145

RRIRHRPPRLPRPRPRPTGSPRP
shrunken log2 fold change: 0.0528

RRIRHRPPRLPRPRPRPTIKPRP
shrunken log2 fold change: -0.304

RRIRHRPPRLPRPRPRPTITPRP
shrunken log2 fold change: -0.384

RRIRHRPPRLPRPRPRPTLDPRP
shrunken log2 fold change: 0.0219

RRIRHRPPRLPRPRPRPTLFPRP
shrunken log2 fold change: 0.267

RRIRHRPPRLPRPRPRPTMTPRP
shrunken log2 fold change: -0.29

RRIRHRPPRLPRPRPRPTNQPRP
shrunken log2 fold change: -0.425

RRIRHRPPRLPRPRPRPTPFPRP
shrunken log2 fold change: 0.177

RRIRHRPPRLPRPRPRPTPHPRP
shrunken log2 fold change: 0.281

RRIRHRPPRLPRPRPRPTPNPRP
shrunken log2 fold change: -0.00791

RRIRHRPPRLPRPRPRPTQPPRP
shrunken log2 fold change: 0.306

RRIRHRPPRLPRPRPRPTTGPRP
shrunken log2 fold change: -0.117

RRIRHRPPRLPRPRPRPTTNPRP
shrunken log2 fold change: -0.348

RRIRHRPPRLPRPRPRPTWNPRP
shrunken log2 fold change: -0.267

RRIRHRPPRLPRPRPRPVANPRP
shrunken log2 fold change: -0.0206

RRIRHRPPRLPRPRPRPVAPPRP
shrunken log2 fold change: 0.222

RRIRHRPPRLPRPRPRPVAYPRP
shrunken log2 fold change: -0.332

RRIRHRPPRLPRPRPRPVCTPRP
shrunken log2 fold change: -0.108

RRIRHRPPRLPRPRPRPVFCPRP
shrunken log2 fold change: -0.138

RRIRHRPPRLPRPRPRPVFSPRP
shrunken log2 fold change: 0.0833

RRIRHRPPRLPRPRPRPVGGPRP
shrunken log2 fold change: 0.417

RRIRHRPPRLPRPRPRPVGTPRP
shrunken log2 fold change: 0.0773

RRIRHRPPRLPRPRPRPVHAPRP
shrunken log2 fold change: 0.346

RRIRHRPPRLPRPRPRPVHGPRP
shrunken log2 fold change: 0.131

RRIRHRPPRLPRPRPRPVIAPRP
shrunken log2 fold change: -0.134

RRIRHRPPRLPRPRPRPVKEPRP
shrunken log2 fold change: -0.00992

RRIRHRPPRLPRPRPRPVLIPRP
shrunken log2 fold change: -0.113

RRIRHRPPRLPRPRPRPVLQPRP
shrunken log2 fold change: -0.169

RRIRHRPPRLPRPRPRPVMFPRP
shrunken log2 fold change: -0.0942

RRIRHRPPRLPRPRPRPVMLPRP
shrunken log2 fold change: -0.196

RRIRHRPPRLPRPRPRPVQGPRP
shrunken log2 fold change: 0.207

RRIRHRPPRLPRPRPRPVRWPRP
shrunken log2 fold change: 0.98

RRIRHRPPRLPRPRPRPVSDPRP
shrunken log2 fold change: 0.132

RRIRHRPPRLPRPRPRPVTNPRP
shrunken log2 fold change: -0.222

RRIRHRPPRLPRPRPRPVVNPRP
shrunken log2 fold change: 0.00319

RRIRHRPPRLPRPRPRPVWGPRP
shrunken log2 fold change: 0.479

RRIRHRPPRLPRPRPRPVWYPRP
shrunken log2 fold change: 0.00395

RRIRHRPPRLPRPRPRPWCDPRP
shrunken log2 fold change: -0.559

RRIRHRPPRLPRPRPRPWEKPRP
shrunken log2 fold change: -0.359

RRIRHRPPRLPRPRPRPWFSPRP
shrunken log2 fold change: -0.294

RRIRHRPPRLPRPRPRPWGIPRP
shrunken log2 fold change: -0.0176

RRIRHRPPRLPRPRPRPWGRPRP
shrunken log2 fold change: 0.0574

RRIRHRPPRLPRPRPRPWHKPRP
shrunken log2 fold change: -0.113

RRIRHRPPRLPRPRPRPWMNPRP
shrunken log2 fold change: -0.0538

— the supplement of paper PMC9112550, “Optimization of the antimicrobial peptide Bac7 by deep mutational scanning” (BMC Biology, 2022)
